{"source": "the supplement of paper PMC12042874", "note": "± gives the uncertainty stated by the source."}
{"test": "amyloid nucleation score (Sup35N fusion, yeast selection) (log enrichment); library NNK2; higher = more nucleation; inactive = no reads after selection", "summary_of_the_method": "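Psi-negative yeast expressed Sup35N fused to peptides of 20 random codons. They were induced 24 hours with 100 μM copper sulfate, grown 7 days at 30°C without adenine and uracil, and their plasmid inserts from input and output were Illumina-sequenced. The nucleation score is the DiMSum log enrichment of output over input reads, centred on the mode score of non-aggregating sequences. Sequences with under 100 input reads were excluded.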"}
{"substance": "NPETQYASLGRS", "amyloid nucleation score": "-0.306 ± 0.38"}
{"substance": "NPFYYTGLTIPCFVYHRIKS", "amyloid nucleation score": "-0.508 ± 0.31"}
{"substance": "NPHGMLSTRSGSVFMPTIDT", "amyloid nucleation score": "-0.742 ± 1"}
{"substance": "NPINRYCVAHEKLFRNVRSV", "amyloid nucleation score": "1.87 ± 0.29"}
{"substance": "NPRFLDRCYLYYPGSASRVA", "amyloid nucleation score": "inactive"}
{"substance": "NPVMTA", "amyloid nucleation score": "-0.314 ± 0.37"}
{"substance": "NQGLRWLTDRDILRIVEVGM", "amyloid nucleation score": "0.027 ± 0.65"}
{"substance": "NQLVWSLNNDLGMENVGGRV", "amyloid nucleation score": "1.46 ± 0.44"}
{"substance": "NQRHVIPNSIVLWWGELDLF", "amyloid nucleation score": "0.465 ± 0.8"}
{"substance": "NQVQCKCSYKVVEVG", "amyloid nucleation score": "0.408 ± 0.2"}
{"substance": "NQWDPMFDRIPTMAALAGPG", "amyloid nucleation score": "3.4 ± 0.1"}
{"substance": "NRACFGYEDKLRAMLHLYRS", "amyloid nucleation score": "0.201 ± 0.45"}
{"substance": "NRHRWLYLRMRLYRYLEGVR", "amyloid nucleation score": "1.18 ± 0.47"}
{"substance": "NRIYVQNRPWSIPENVELTG", "amyloid nucleation score": "-0.821 ± 0.78"}
{"substance": "NRTGEYLYRRWVQSGSGGKG", "amyloid nucleation score": "0.553 ± 0.65"}
{"substance": "NRVGSSGSRYALHRVSSS", "amyloid nucleation score": "4.846 ± 0.045"}
{"substance": "NRVLVLAVGHEKFIAKMRLT", "amyloid nucleation score": "1.51 ± 0.46"}
{"substance": "NSESVICVLQGGFIRACV", "amyloid nucleation score": "-0.551 ± 0.45"}
{"substance": "NSFTLKCSKGVGYKALHLGT", "amyloid nucleation score": "2.9 ± 0.097"}
{"substance": "NSGARSTSLVNVWVLYLLDR", "amyloid nucleation score": "6.414 ± 0.055"}
{"substance": "NSIIGCYRGFC", "amyloid nucleation score": "4.63 ± 0.092"}
{"substance": "NSKKWSQGIGTYSDRAFYVF", "amyloid nucleation score": "inactive"}
{"substance": "NSKLPAEFLFFQYECMESPR", "amyloid nucleation score": "-0.758 ± 0.79"}
{"substance": "NSKYPGVLYCFYRGFGRRVY", "amyloid nucleation score": "inactive"}
{"substance": "NSLVLPDLAYLGCKMNLNFS", "amyloid nucleation score": "3.94 ± 0.074"}
{"substance": "NSLYIFMVKYP", "amyloid nucleation score": "3.96 ± 0.049"}
{"substance": "NSMILDKNRDSTNFVSCFSY", "amyloid nucleation score": "-1.6 ± 0.49"}
{"substance": "NSMPATIYFMRSPDIGFSV", "amyloid nucleation score": "2.81 ± 0.16"}
{"substance": "NSMSDLFSFSY", "amyloid nucleation score": "inactive"}
{"substance": "NSNLNYPECWEEWTLNHFTD", "amyloid nucleation score": "inactive"}
{"substance": "NSREALVKVGNECP", "amyloid nucleation score": "inactive"}
{"substance": "NSSTVGMIAF", "amyloid nucleation score": "-0.317 ± 0.22"}
{"substance": "NSTCDMLVSQVVAAVNGF", "amyloid nucleation score": "-0.715 ± 0.49"}
{"substance": "NSTDSSFGKARYFLSNSYWV", "amyloid nucleation score": "inactive"}
{"substance": "NSVCSTLKHLSNLGSIDIQH", "amyloid nucleation score": "-0.363 ± 1.1"}
{"substance": "NSVCYGP", "amyloid nucleation score": "0.899 ± 0.47"}
{"substance": "NSVDTTCAL", "amyloid nucleation score": "1.04 ± 0.41"}
{"substance": "NSYILKDFNCEPGVNMDWQN", "amyloid nucleation score": "inactive"}
{"substance": "NTKYRRFFFNTVRLLHM", "amyloid nucleation score": "-0.28 ± 0.79"}
{"substance": "NTQDFGLCYIFFLQDRCN", "amyloid nucleation score": "-0.117 ± 0.49"}
{"substance": "NTRCGCWLVSAML", "amyloid nucleation score": "0.196 ± 0.77"}
{"substance": "NTRRSFVRVYFNGLGLCGAN", "amyloid nucleation score": "inactive"}
{"substance": "NTSFRGTTTRKSY", "amyloid nucleation score": "-0.233 ± 0.29"}
{"substance": "NVAGCSWSSQLPRPTP", "amyloid nucleation score": "1.46 ± 0.61"}
{"substance": "NVERSFGAVGQVRIEEYARD", "amyloid nucleation score": "0.266 ± 1"}
{"substance": "NVLRCINYYLYYTSGCASSS", "amyloid nucleation score": "-0.169 ± 0.42"}
{"substance": "NVLRFSSTSLYGLAFLAEGS", "amyloid nucleation score": "-0.577 ± 0.3"}
{"substance": "NVPCGLN", "amyloid nucleation score": "-0.032 ± 1.1"}
{"substance": "NVRFLMMI", "amyloid nucleation score": "inactive"}
{"substance": "NVRMSGLF", "amyloid nucleation score": "2.67 ± 0.14"}
{"substance": "NVSSSLPF", "amyloid nucleation score": "-0.424 ± 0.78"}
{"substance": "NWCWYHANRLGCFGASCHVV", "amyloid nucleation score": "4.52 ± 0.071"}
{"substance": "NWDNSNLVFLYNSGLGNYVS", "amyloid nucleation score": "-0.874 ± 0.78"}
{"substance": "NWGWFVSLFYGVAAGDHSRT", "amyloid nucleation score": "0.955 ± 0.37"}
{"substance": "NWLLRG", "amyloid nucleation score": "1.26 ± 0.37"}
{"substance": "NWNLRHRCAGWYCDRRKVLR", "amyloid nucleation score": "4.28 ± 0.085"}
{"substance": "NYCVLSFDISGYAFYKEGLG", "amyloid nucleation score": "-0.492 ± 1.1"}
{"substance": "NYHKWNVDSDFVYKGYGGHC", "amyloid nucleation score": "-0.573 ± 0.48"}
{"substance": "NYLMWVITSTYWRHGRESWA", "amyloid nucleation score": "3.03 ± 0.057"}
{"substance": "NYRMCFTLHSCYLIRSDNLS", "amyloid nucleation score": "inactive"}
{"substance": "PAIHVVDTRVGWRHSMSGYS", "amyloid nucleation score": "1.72 ± 0.15"}
{"substance": "PAKERLFRVETGRFRMKGSW", "amyloid nucleation score": "1.63 ± 0.13"}
{"substance": "PAMSVHGNSAESTYVIMHYF", "amyloid nucleation score": "-0.494 ± 0.54"}
{"substance": "PANGS", "amyloid nucleation score": "-0.249 ± 1"}
{"substance": "PARAKRLTAL", "amyloid nucleation score": "-0.207 ± 0.29"}
{"substance": "PARMNLYVCIYV", "amyloid nucleation score": "7.32 ± 0.081"}
{"substance": "PARTYILYNPDAGMSLKWSS", "amyloid nucleation score": "-1.06 ± 1.1"}
{"substance": "PAVDRIFSRLCTYSGQFIPQ", "amyloid nucleation score": "4.66 ± 0.061"}
{"substance": "PAWATTLLDTSTARLYNMLA", "amyloid nucleation score": "0.157 ± 0.18"}
